Target: collagen type XI (UniProt P12107 36-1563; P13942 28-1736, hydroxyproline/hydroxylysine expected in native collagen; preparation and processing not stated; alpha3(XI) taken as COL2A1 product)
Test: ELISA; collagen model peptide or collagen XI coated; COMP or TSP-4 at indicated concentrations in TBS-T with 0.25% BSA, 1 h, room temperature; detected with anti-COMP or anti-TSP-4 antibody; four-parameter logistic fit; apparent KD
Details: both partners purified

Kd: 20 nM
B1: cartilage oligomeric matrix protein (COMP), wild type, pentameric (natural protein)
chain: not shown
notes: cartilage oligomeric matrix protein (COMP, TSP-5); residue numbers Asp593-Asp595 as in PDB 3FBY; also called COMP wt; TSP-5; source: HEK293 (EBNA), pCEP vector, serum-free supernatant, purified (Strep-Tactin)

— PMC6249252, “COMP and TSP-4 interact specifically with the novel GXKGHR motif only found in fibrillar collagens” (Scientific Reports, 2018)
